Results as given in patent US8158585B2, “Cross-β structure comprising amyloid-binding proteins and methods for detection of the cross-β structure, for modulating cross-β structures fiber formation and modulating cross-β structure-mediated toxicity” (CrossBeta Biosciences B.V., priority 2002, dated 2012).
Where no end group is shown, it is not given here.

Assays:
[1] = molecular target: T1, tPA-mediated plasminogen activation (Homo sapiens, UniProt P00750); assay: Plasminogen activation assay; assay type: biochemical; conditions: plasminogen 200 μg ml−1, tPA 200 pM, 5 μM co-factor, S-2251
T1 construct: purchased Boehringer-Ingelheim (Germany)
T1 sequence (P00750 36-562): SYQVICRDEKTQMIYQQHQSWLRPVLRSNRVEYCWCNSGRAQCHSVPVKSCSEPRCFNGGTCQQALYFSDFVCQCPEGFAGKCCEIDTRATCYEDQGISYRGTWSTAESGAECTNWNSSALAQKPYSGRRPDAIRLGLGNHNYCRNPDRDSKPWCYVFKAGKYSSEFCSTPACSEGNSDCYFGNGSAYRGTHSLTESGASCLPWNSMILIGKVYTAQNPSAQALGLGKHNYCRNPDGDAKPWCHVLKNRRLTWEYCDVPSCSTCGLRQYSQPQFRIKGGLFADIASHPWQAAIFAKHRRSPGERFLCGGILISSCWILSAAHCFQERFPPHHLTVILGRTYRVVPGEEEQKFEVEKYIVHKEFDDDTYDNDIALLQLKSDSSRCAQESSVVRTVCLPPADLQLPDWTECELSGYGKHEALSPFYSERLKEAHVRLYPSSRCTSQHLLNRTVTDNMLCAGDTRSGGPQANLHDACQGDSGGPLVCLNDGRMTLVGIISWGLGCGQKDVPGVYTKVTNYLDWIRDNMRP
Description: Plasminogen (200 μg ml^−1) was incubated with tPA (200 pM) in the presence or the absence of a co-factor (5 μM of either endostatin, Aβ (1-40), or one the fibrin-derived peptides 85, 86 and 87). At the indicated time intervals, samples were taken and the reaction was stopped in a buffer containing 5 mM EDTA and 150 mM εACA. After collection of the samples, a chromogenic plasmin substrate S-2251 was added and plasmin activity was determined kinetically in a spectrophotometer at 37° C.

[2] = Circular dichroism: percentage β-sheet (k2d software); assay type: physicochemical
Description: UV circular dichroism (CD) spectra of peptide and protein solutions ([…] in H2O) were measured on a JASCO J-810 CD spectropolarimeter (Tokyo, Japan). Averaged absorption spectra of five or ten single measurements from 190-240 nm or from 190-250 nm, for fibrin peptides 85, 86, 87 or for albumin, glycated albumin and human Aβ (16-22), respectively, are recorded. The CD spectrum of Aβ (16-22) was measured as a positive control. Aβ (16-22) readily adopts amyloid fiber conformation with cross-β structure when incubated in H2O^45. For albumin and Aβ (16-22), relative percentage of the secondary structure elements present was estimated using k2d software.^48

[3] = molecular target: T2, Aβ fibrils (Homo sapiens, UniProt P05067); assay: Amyloid pull-down with insoluble Aβ fibers; assay type: binding; conditions: conditioned BHK medium
T2 construct: Peptide Aβ (1-40), containing amino acids as present in the described human Alzheimer peptide; purchased Pepscan, Inc. (The Netherlands) or peptide synthesis facility at the Netherlands Cancer Institute; host or cells: synthetic peptide
T2 sequence (P05067 672-711): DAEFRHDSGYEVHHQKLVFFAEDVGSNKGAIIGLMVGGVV
Description: Conditioned medium of BHK cells expressing GST-tagged tPA F, F-EGF, EGF, K1, F-EGF-K1, FXII F, HGFa F, Fn F4, Fn F5, Fn F4-5 and GST was used for amyloid binding assays. At first, constructs were adjusted to approximately equal concentration using Western blots. Qualitative binding of the recombinant fragments were evaluated using a “pull-down” assay. To this end, the recombinantly made fragments were incubated with either Aβ or IAPP fibrils. Since these peptides form insoluble fibers, unbound proteins can be easily removed from the fibers following centrifugation. The pellets containing the bound fragments were subsequently washed several times. Bound fragments were solubilized in SDS-sample buffer and analyzed by PAGE, as were unbound proteins in the supernatant fraction and starting material. The gels were analyzed using immunoblotting analysis with the anti-GST antibody Z-5.

[4] = molecular target: T3, tPA (Homo sapiens, UniProt P00750); assay: ELISA: binding of tPA to 86-week glycated albumin-AGE preparations; conditions: albumin incubated 86 weeks; 10 mM εACA
T3 construct: purchased Boehringer-Ingelheim (Germany)
T3 sequence (P00750 36-562): as the sequence (P00750 36-562) above
Description: Binding of the cross-B structure marker tPA to albumin-AGE was tested using an ELISA setup. […] Therefore, we used tPA binding to these two peptides as positive control. The 86-week glycated samples and controls were coated to Greiner microlon plates (catalogue #655092, Greiner, Frickenhausen, Germany). Wells were blocked with Superblock (Pierce, Rockford, Ill., USA). All subsequent incubations were performed in PBS/0.1% (v/v) Tween 20 for one hour at room temperature while shaking, with volumes of 50 μl per well. After incubation, wells were washed five times with 300 μl PBS/0.1% (v/v) Tween 20. Increasing concentrations of tPA were added in triplicate to coated wells as well as to control wells. During tPA incubations of 86-week incubated samples, at least a 123,000 times molar excess of ε-amino caproic acid (εACA, 10 mM) was added to the solutions. εACA is a lysine analogue and is used to avoid potential binding of tPA to albumin via its kringle 2 domain.^50 Monoclonal antibody 374b (American Diagnostica, Instrumentation laboratory, Breda, The Netherlands) and, subsequently, RAMPO (Dako diagnostics, Glostrup, Denmark) was added to the wells at a concentration of 0.3 μg ml^−1. Bound peroxidase-labeled antibody was visualized using 100 μl of a solution containing 8 mg ortho-phenylene-diamine in 20 ml 50 mM citric acid/100 mM Na2HPO4 pH 5.0 with 0.0175% (v/v) H2O2. Staining was stopped upon adding 50 μl of a 2 M H2SO4 solution. Absorbance was read at 490 nm on a Vmax kinetic microplate reader (Molecular Devices, CA, USA). Background signals from non-coated control wells were substracted from corresponding coated wells.

[5] = molecular target: T4, Aβ (Homo sapiens, UniProt P05067); assay: Solid-phase binding ELISA of tPA, plasminogen and plasmin to coated Aβ; conditions: Aβ coated onto plastic 96-well plates
T4 construct: Peptide Aβ (1-40), containing amino acids as present in the described human Alzheimer peptide; purchased Pepscan, Inc. or peptide synthesis facility of the Netherlands Cancer Institute; host or cells: chemical synthesis
T4 sequence (P05067 672-711): as the sequence (P05067 672-711) above
Description: FIG. 3 is a set of graphs depicting binding of tPA, plasminogen and plasmin to Aβ. Aβ was coated onto plastic 96-well plates. Increasing concentrations of either (A) tPA or (B) plasmin(ogen) were allowed to bind to the immobilized peptide. After extensive washing, tPA and plasmin(ogen) binding was assessed by enzyme-linked immunosorbent assays using anti-tPA and anti-plasminogen antibodies. Binding of (C) tPA and (D) plasmin to Aβ in the presence of 50 mM ε-aminocaproic acid (ε-ACA) was assessed as in A and B.
To test whether tPA, plasminogen and plasmin bind Aβ, solid-phase binding assays were performed. Aβ was coated onto plastic 96-well plates and binding of the peptide to either plasmin(ogen) or to tPA was assessed by overlaying the coated peptide with increasing concentrations of either tPA, plasminogen or plasmin. Binding was assessed using specific antibodies to either plasmin(ogen) or to tPA by performing ELISA. […] However, activated plasminogen (plasmin) does bind to Aβ and does so with a kD of 47 nM. […] To test this, use was made of the lysine analogue ε-aminocaproic acid (εACA) and binding of plasmin and tPA to Aβ was tested in its presence. […] In contrast, εACA has no effect on the tPA-Aβ interaction (FIG. 3, Panel C). Thus, it was concluded that plasmin binds to free lysines that were generated during the incubation period, presumably via its lysine-binding Kringle domain(s). In line with this, the kD of plasminogen Kringle domain binding to free lysines in fibrin is similar to the kD for plasmin binding to Aβ.

[6] = test system: differentiated N1E-115 cells; assay: N1E-115 cell detachment (methylene blue staining); assay type: cell-based, mouse; conditions: 24 hours
Description: FIG. 4 is a set of graphs illustrating stimulation of tPA-mediated plasmin formation by Aβ and synergistic stimulation of cell detachment by plasminogen and Aβ. Panel A depicts that plasminogen (200 μg/ml) and tPA (200 pM) were incubated with Aβ (5 μM) or control buffer. Samples were taken from the reaction mixture at the indicated periods of time and plasmin activity was measured by conversion of the chromogenic plasmin substrate S-2251 at 405 nm. […] After 48 hours, the dead cells were washed away and the remaining adherent cells were stained with methylene blue. Plasmin cannot prevent Aβ-induced cell detachment. Panel C illustrates that N1E-115 cells were differentiated and received the indicated concentrations of plasminogen in the presence or absence of 10 μM Aβ. After 24 hours, cell detachment was assessed. […] Panel D is an immunoblot analysis of plasmin formation and laminin degradation. Differentiated N1E-115 cells were treated with or without Aβ (10 μM) in the absence or presence of added plasminogen. Addition of Aβ results in the formation of plasmin (bottom panel) and in degradation of laminin (top panel).
FIG. 5 depicts graphs illustrating that carboxypeptidase B inhibits Aβ-stimulated tPA-mediated plasmin formation and cell detachment. […] Samples were taken from the reaction mixture at the indicated periods of time and plasmin activity was measured by conversion of the chromogenic plasmin substrate S-2251 at 405 nm. The reaction was performed in the absence or the presence of 50 μg ml^−1 carboxypeptidase B (CpB) and in the absence or presence of 3.5 μM carboxypeptidase inhibitor (CPI). CpB greatly attenuates A-stimulated plasmin formation. […] After 24 hours, the cells were photographed. Panel C illustrates that, subsequently, the cells were washed once with PBS and the remaining cells were quantified as percentage-adhered cells by methylene blue staining. In Panel D, the cells were treated as in Panels B and C and medium and cell fractions were collected and analyzed by Western blot using an anti-plasmin(ogen) antibody. Aβ stimulates plasmin formation that is inhibited by CpB.
N1E-115 mouse neuroblastoma cells were routinely cultured in DMEM containing 5% FCS, supplemented with antibiotics. Cells were differentiated into post-mitotic neurons.^52 The cells were exposed to Aβ (50 μg ml^−1) for 24 hours in the presence or absence of 20 μg ml^−1 plasminogen in the presence or absence of 50 μg ml^−1 CpB. Cells were photographed, counted and lysed by the addition of 4× sample buffer (250 mM Tris pH 6.8, 8% SDS, 10% glycerol, 100 mM DTT, 0.01% w/v bromophenol blue) to the medium. The lysate, containing both adherent and floating (presumably dying and/or dead) cells, as well as the culture medium, were analyzed for the presence of plasminogen and plasmin, as well as for laminin, by Western blot analysis using specific antibodies against plasminogen (MoAb 3642, American Diagnostics), laminin (PoAb L9393, Sigma).

Molecule: KRLEVDIDIK (Peptide FP10 from Homo sapiens) [compound 87]
- stimulation of tPA-mediated plasmin formation [1]: does not

Molecule: Albumin control: albumin incubated with g6p or glyceraldehyde omitted [reference compound]
- β-sheet (%) ([2]; incubation time 2 weeks): 0%
- β-sheet (%) ([2]; incubation time 23 weeks): 0%

Molecule: EGF-GST: EGF fragment of human tPA with C-terminal GST tag (CSEPRCFNGGTCQQALYFSDFVCQCPEGFAGKCCEID-{GST}; cysteine pairing not given here)
- binding to Aβ fibers (pull-down, Western blot) [3]: remain in the supernatant

Molecule: Albumin-glyceraldehyde: glyceraldehyde-modified albumin
- β-sheet (%) ([2]; incubation time 2 weeks): 0%
- binding of amyloid-specific serine protease tPA [4]: bound specifically

Molecule: SNNFGAILSS (Peptide Delta hIAPP from Homo sapiens) [Δ-hIAPP]
- stimulation of tPA-mediated plasmin formation [1]: stimulate

Molecule: KRLEVDIDIKIRS (Peptide FP13 from Homo sapiens) [compound 85]
- stimulation of tPA-mediated plasmin formation [1]: stimulate

Molecule: albumin-glyoxylic acid: albumin incubated 86 weeks with 500 mM glyoxylic acid/100 mM NaCNBH3
- binding of amyloid-specific serine protease tPA [4]: No tPA binding

Molecule: Aβ (16-22): human Aβ fragment, positive control that adopts amyloid fiber conformation (KLVFFAE) [reference compound]
- β-sheet (%) ([2]; no incubation time given): 100%

Molecule: SNNLGPVLPP (Peptide Delta mIAPP from Homo sapiens) [Δ-mIAPP]
- stimulation of tPA-mediated plasmin formation [1]: not

Molecule: plasminogen: inactive precursor of plasmin, cleaved by tPA
- binding to Aβ [5]: No detectable binding
- cell adhesion in the absence of Aβ [6]: no effect
- minimal levels required to potentiate Aβ-induced cell detachment [6]: 10 to 20 µg/mL
- effect on Aβ-induced cell detachment ([6]; suboptimal Aβ (10 μM), low plasminogen): dramatic potentiating effect

Molecule: KRLEVDIDIKIR (Peptide FP12 from Homo sapiens) [compound 86]
- stimulation of tPA-mediated plasmin formation [1]: stimulate

Molecule: KCNTATCATQRLANFLVHSSNNFGAILSSTNVGSNTY (Peptide fl-hIAPP from Homo sapiens)
- stimulation of tPA-mediated plasmin formation [1]: stimulate
- stimulation of tPA-mediated plasmin formation ([1]; listed as IAPP): enhanced
- binding of amyloid-specific serine protease tPA [4]: bound specifically

B1: F-EGF-K1-GST: F-EGF-K1 fragment of human tPA with C-terminal GST tag (protein)
chain: SYQVICRDEKTQMIYQQHQSWLRPVLRSNRVEYCWCNSGRAQCHSVPVKSCSEPRCFNGGTCQQALYFSDFVCQCPEGFAGKCCEIDTRATCYEDQGISYRGTWSTAESGAECTNWNSSALAQKPYSGRRPDAIRLGLGNHNYCRNPDRDSKPWCYVFKAGKYSSEFCSTPACSE
modifications: left off: small tags and cut ends; a dimerising Fc or GST
notes: F-EGF-K1 fragment of human tPA with C-terminal GST tag
- binding to Aβ fibers (pull-down, Western blot) [3]: Efficient binding

B2: K1-GST: K1 fragment of human tPA with C-terminal GST tag (protein)
chain: TRATCYEDQGISYRGTWSTAESGAECTNWNSSALAQKPYSGRRPDAIRLGLGNHNYCRNPDRDSKPWCYVFKAGKYSSEFCSTPACSE
modifications: left off: small tags and cut ends; a dimerising Fc or GST
notes: K1 fragment of human tPA with C-terminal GST tag
- binding to Aβ fibers (pull-down, Western blot) [3]: remain in the supernatant
